pKd: −log10 of the molar value.
Experiments:
[1] = biological target: soluble human FcγRIIa ectodomain (human) (UniProt P12318); assay: SPR (Biacore T200), mAb on Protein G chip, soluble FcγR ectodomain as analyte
[2] = biological target: soluble human FcγRIIb ectodomain (human) (UniProt P31994); assay: as above
[3] = biological target: soluble human FcγRIIIa ectodomain (human) (UniProt P08637); assay: as above
[4] = biological target: Rituximab G2 (galactosylated afucosylated glycoform); assay: SPR, 256 to 8 nM
[5] = biological target: Rituximab G2F (galactosylated fucosylated glycoform); assay: SPR, 256 to 8 nM

Sequence of soluble human FcγRIIb ectodomain (human) (P31994 43-217): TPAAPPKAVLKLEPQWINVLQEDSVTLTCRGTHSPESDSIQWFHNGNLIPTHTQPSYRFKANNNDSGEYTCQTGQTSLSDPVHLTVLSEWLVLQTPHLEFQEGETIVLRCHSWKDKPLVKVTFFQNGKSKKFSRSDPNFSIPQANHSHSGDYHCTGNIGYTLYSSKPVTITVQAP
Sequence of tetrameric FcγRIIIA (P08637 17-208 limits assumed): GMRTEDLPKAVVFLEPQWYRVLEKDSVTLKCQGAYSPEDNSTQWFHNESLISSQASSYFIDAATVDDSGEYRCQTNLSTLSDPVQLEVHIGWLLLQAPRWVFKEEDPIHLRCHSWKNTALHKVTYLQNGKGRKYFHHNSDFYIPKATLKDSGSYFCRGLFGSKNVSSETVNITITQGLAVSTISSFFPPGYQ

Substance	pKd [1]	pKd [2]	Fold (affinity relative to Wild-type) [3] [fold]	pKd [3]	Fold (affinity relative to Wild-type) [1] [fold]	Fold (affinity relative to Wild-type) [2] [fold]	KD1 [4] [nM]	KD2 [4] [nM]	KD1 [5] [nM]	KD2 [5] [nM]
human IgG1 Fc variant: Wild-type (antibody)	5.99	5.51	1	6.13	1	–	–	–	–	–
tetrameric FcγRIIIA (from UniProt P08637 17-208) (receptor)	–	–	–	–	–	–	29.9	2.3	55.2	2.29
human IgG1 Fc variant: ALIE (antibody)	5.68	5.41	–	6.77	0.5	0.8	–	–	–	–

More lines, in order of rising pKd [1], values ahead:

pKd [1]	pKd [2]	Fold (affinity relative to Wild-type) [3] [fold]	pKd [3]	Fold (affinity relative to Wild-type) [1] [fold]	Fold (affinity relative to Wild-type) [2] [fold]	KD1 [4] [nM]	KD2 [4] [nM]	KD1 [5] [nM]	KD2 [5] [nM]	Substance
6.13	5.65	–	–	–	–	–	–	–	–	human IgG1 Fc variant: Afucosylated (antibody)
6.41	5.38	–	6.66	2.7	0.8	–	–	–	–	human IgG1 Fc variant: GAALIE (antibody)
6.73	5.54	0.8	6.04	5.5	1.1	–	–	–	–	human IgG1 Fc variant printed 'GAALIE' in the second such row of Table 9 (r13) (antibody)

Reference: US20250188193A1
